From US20260117244A1, “INHIBITORY RNA FOR THE CONTROL OF PHYTOPATHOGENS” (priority 2021, published 2026)

B1: 169 (nucleic acid, listed as Golovinomyces orontii)
chain: ATGGATATGGATATGAATATGAGCACAGGAATGAATGCAAGTCCAATAATCGGAGGCAACGAAGTCCATTCACATCCAATGGATATGGGAAGGGATATGTCGATGACTTTTTTTAATGGCATGACAACTAAACTCTATACCTCGACGTGGGCACCAAAAAGTTTAGGCACTTATATAGCGACTTGTTTATTTCTCATCGCTTTATCCAGCATATCTAGGTTTCTATTAGCCGCCAAGTTATGGCTAGAAACAACTTGGATGAACGCTGAGCTCAATCGAAAATATGTTACGGCTGCTGGAAAAGTACCAATCTCAGAACAGATTTCAATGAAGTCTGAAGCTCGGCAAATGGTACTATCTGGAAATGGTTTTGAAGAAGATGTGATAGTCGTTCAAAAGAAAGGATTCCGTGTACGGCCCTGGAGTATTACTGTGGATCCAATCCGAGCGCTGATAGACACCACAATTATGGCAGTGGGATTATTAATAATGCTGGCCGTTATGACAATGAATATTGGGTATTTTATATCGGTTTTGATAGGCACATTTATTGGCAGCCTAGTTGTCGGGCGTTATTCTCCTGAATAA
modifications: listed as DNA
B2: 146 (nucleic acid, listed as Golovinomyces orontii)
chain: ATGGCTCAATCCCCGGACAGTAAGGTAGAGAAAGTCTTTACGACAAATCACCTCGGAATTGGCAGGCTCCAAGGAAAGAACGCAATTGTGACCGGAGCAGCAGGTGGTATCGGCTTGGAAACATGCATTTTATTCGCCAGAGAAGGTGCCAATGTTCTTTTGGCCGACATTTCAGCTCCAGCCCTAGAAAAAGCATATGCCAAGATTGCTCAACTTGTACCTTCGGCTCGCAAGGTCGAGAAAATGCTATGTGATGTTTCCAAGGAGGGAGACGTCAAAGCTATGGTTGACCATGTTGATTCATGGGGTGGTGTTGACATTATTTTTAACAATGCGGGCATAATGCATGCTGATGATGCTGATGCAGTTGACACCCCTGAGAAGATTTGGGATCTCACTCAGGCTATCAACGTGAAAGGTGTCTGGTTCGGCTGCAAACATGCAGTCATCTCATTTCGAAAGCATAAAAAGTCAAAGGGCTGTGTCATCAATACAGCCTCTGTTGTTGCTTTGGTGGGATCTGCAACTCCACAACTTGCCTACACCGCGAGTAAAGGAGCTGTTCTAGCTCTAACGCGGGAGCTTGCAATTGTACATGCACGCGAGGCGCCGTTGAACACTCCCTTACTTCAGGATTGGCTTGGAGATGACCAGCCTAAGCGACTTCGTCGGGAAATTCATTTTCCATGTGGCCGCTTCGGCGAAGCTGTTGAACAAGCTCGTGCTGTTCTTTTCTTAGCTTCCGATGACGCCAATTTCATTAATGGGCAGGAATTTGTTGTCGATGGCGGAATGACTAAAGCATATGTGACTCCAGAAGGTCCCCCGACCGAGGCGCCTATAAATAACTCATTACTCTCTGAGCCAATCGATAATTTTAAGACCACTAACTCATCAGACATGGGAGTTTGA
modifications: listed as DNA
B3: 140 (nucleic acid, listed as Golovinomyces orontii)
chain: ATGCAATTCACTCAACTTCTCATCTTAGCCTTCGTCGCTTGCGTGGCTGCTACACCATCAGGATTGAACTTTTACGCGCGAAGAACTGACGGTGGAGACGACGAATCACCACAGACATGTACTCAGGCCCTACAAGCTATTCCCAAGTGCGCTCTGAGTTGCATCACACAACCCCCAATCGACGCCGGTTGCAAATCAGCTGCTGACTTCGCTTGCACCTGTGAGAAAAAGACCCAAAAACAAATTACAAAGGCAGAAACTCCTTGTGTTCTCAAGGCTTGCGGACTAAAAGAGGCACTTGCTGCTTCTAAGGCTGGAAAAGCTGTATGTGAGGCTTGCAACACATCCCCAAGCGACCCATCCGACGGTCACGGTGACGACGGAGATGACGATTCATACGATAGCTCTGATTCTGAATAA
modifications: listed as DNA
B4: 123 (nucleic acid, listed as Golovinomyces orontii)
chain: ATGTTGTGCTTCATTTCCATCTTCACAACAGCTCTCCTAATCTCTCCCTCCCTAGGAGTTAATTCAGCTCAGAACGGCGAAACTCCCGATGACGATTCATTAGGTTCTACGAAACACATGAACTTTGGCTCTGGTCTCTCTGAATTCAATGCTCATGAAGATATGTATGTTCCTGCCATGGATCTGAATGGGTTTAGAATAAAGCGACGACATTTTCAAAATGAAGGCTATTACTGCAGCAAATCGCGCAATCACCTCGAATTTACAAATCAATCTTTCGTGAAGAATGAAGCTAAGAAGGCATGCAAGGGTCTTGAAAGGTCAAAACACGAACACAAACACGAACATGAACATGAGCACGAAGATAAACATGAATATAAAGAATATGAAGAAGAAGAAGAAGAAGAAGAAGAAGAAGAAGAAGAAGAAAATAAAATAAAAAAAGGAAAGAAAGGAAAGAAACATTCCGATTACCCTCATCCATACAATGCAGTCAAATATGTAAAATATTCCCCACCATACTTCGAACACCGAATCCATGATGTGAAGAAAAATAAATCAGGTCTGAGCGTCATCATAGATATCGACTGTCATATTGTTGATGTTGTTGCTCTCAACCAAGATAAACGATACCATCAATGTGCCCGTGCATGA
modifications: listed as DNA
B5: 167 (nucleic acid, listed as Golovinomyces orontii)
chain: ATGCTTCTAACTAAGATTCACACCGCACCAGAACTAGACTCATTTACAGCACTCGAAGATCATCAATCAAAGACTCCCGACAAATTTTATGAAACGAAACCTGTCCTATACTTTCATGACAATAATGCCAGAGCTCTTATCGTCAAAAGTCAGCTTGTCAAATTACCCATCTGTGAATTAAATTCTTCGGAAAATGAACCTGAATCAAGCCCAAAAATAGCTAATGTCGAAGTGTTTGTCAATTCCCAGAAATTGATTATATTTAACCCTGTCGAATGCATTGGCTACGCTATTCCCTACTCAGCGATTACTCTTCATGCTATCCAGAGATTAAAAGATCCAATAGATTCATATCTGGAAATACAAGGACTCTACATGCAAATAAATATATCAGATTGCAGTGGTGACGAACAACAAGATGAAGATTCGACCTATGTAGATCTAACTCTCATACCATCACTCAACTCTGATACCATAACTAAACCAAGAATCCAAACACTCTACGAGGCGGTCTCTGCCTGTTCCGACTTAAATCCTGACTTGAATCCGGAAGACGATGGGATAACTGAAGATGTAGGTGAAGAATCTAGGATAATATTTGAAGGCACTGATGGTCTTCCTGGTGTTTTCAACGGCGGATCAGATGGCAACCTCCCACCGCCGTTTCCTGGTAGTGGGGGATGGATAACAGCTGAGAATATGTCTCAATTTTTAGACGAAGAAGGTAATTGGATTGGGAAAAGCGATAACGGTGAGGATTCAATGGTTATCGGATAA
modifications: listed as DNA
B6: 181 (nucleic acid, listed as Golovinomyces orontii)
chain: ATGTCTAATCAGCTAAAACATCCCTCTTTACTCATTCCAGGCCCCGTTGAGATTGACGATGCTGTCCTTCACTCTATGAGCCATCACAGATCCTCATCTTACTGCAGTGAGAGCCATGTGGACATATCGTTTATAAAAACTTTTGGAAAAACGTTGTACATGCTCAGGAAGCTATTCCAATCTAATGATCCTTACTCTCAACCATTCGTAATTTCCGGATCTGGTACCCTAGGATGGGATCTAGTAGCCGCAAATTTAGCGGAACGCGGTGATGATGTCTTAGTATTACACACGGGTTACTTTGCAGACTCTTTCTCCGATTGCTTTGAGACCTACGGGATAAACGTCACACAGCTTATAGCTCCGATTGGTTCAAGACCCCAACTAATAGAGATTGAAGAAGAATTATCAAAAAAGACCTACAAACTTCTAACAGTGACCCATGTCGATACCTCGACTGGCGTATTAAATGAACTGGAGCCAATTTCAGAAATAGTTCATCGGGTTTCTCCTGAGACCCTTGTAATTGTTGATGGAGTGTGCAGTGTCGGGTCTGAGGAGATCGCTTTCGACTCCTGGAAACTCGATGGAGTTATCACTGCAAGCCAGAAAGCAATTGGTGCACCGGCTGGTCTTTCCATCTCAATTTTCAGTGGCCGTGCGATTCAGTCATTTAATGACCGACAGACTCCTCCTGGGTCTTACTATGCATCATTCAAGAATTGGATGCCTATCATGCAGAGCTATGAAGCCCAAGAGCCTTCATATTTTGCAACTCCATCCATTCATTTGATCCATGCACTTCACACCTCTTTAACGCAAATTCTCTCACGCCCTCTTTCAGAGCGGTTCACTATTCACAGAGAAATATCTCAAAGAGTAAAAGAAGCAGTTTCTGGAATGGGATTAACTCAGTTGGCTGCCAATCCTGAAAATCAAGCAAACGGAATGACAGCAATATATTTGCCAGATAATATTAAAGCGAAAGACCTTTTAACCAAGATACTTCAAAAAGGAGTTGTTCTTGCTGGTGGATTACATAAAGAAATTGCTCATAAGTATATTCGCTTTGGTCATATGGGGGTGAGCGTGACCAAGCCTGAAAGGGGTGATATTGAACGAGCTATCAAAGCTTTGGAGACAAGTCTTTCAGAGTTAGGATATCGTAGAGAGAAACAGTCTTAG
modifications: listed as DNA
B7: 179 (nucleic acid, listed as Golovinomyces orontii)
chain: ATGCAGATCTCACGCATCACATTTATCTCTTTCTTCATCGCCCTTGTCGCGGCTCATCCAACTCTTAATGAACGACAAACAATTACCATCCCAAAAATTCCTGAAGTTCCAGCCGTCCCCGAAGTTCCCGCTGTTCCTGAAGTACAAAAGCGTCAACAGACGATAACTGTTCCCACGATCCCCACGATTCCTACCGTGCCAGATGTTCCTGCTGACACACGAATAAAGCTGTCCACAAACTCAATGGCTACGCCAAACTCTATGCTGGACAAGAGACCTGAAGTGTGGCATATCCATGATAACCGGATAACTGGTCGGAAAATATTCAAAGCTAAATGA
modifications: listed as DNA
B8: 124 (nucleic acid, listed as Golovinomyces orontii)
chain: ATGTTCCTCAGAGCTTCGTTGACCTTCTGGGCTCTCTTGGCCACAGAGATAAGTCTGTCCACGACAGCCTCCGTTAGACGACTGGAGAATCGCGAGGTTGTTGACGATATTAATGACAATGGAATCATGATTGAGTGGGCAAGATGCAAAGGTAGACACTACGATAAAGATGAAATATATGAAACGCTCAAACAAGCTTGTGAGACGAAAAATTCATCTACCATTTTTGAAAAAGCCGTCAATCTTCGTCCACATATCCCATCGTCATCAGAGAAGTATCATCATGAGATCAACCCTCCCTACTACGCGTACTCTCTGCATGATACCGTATTCAAAGATAAACTACATCCAATCGATGTTATCGTGATGAACGATGAATGTAAGCTGGCTGGTGTACTCATGGAGACCACCAAGATCAGCTGCAACGACGACACGTGCGGCTCCGAACCCCGGTACAAAGATTGTGAGATCCGATTAACGAAAACCGCTCCGACGTCGACAGAGACGACTCAGGTTGCGGAATTGTCTTGA
modifications: listed as DNA

tested on: G. orontii MGH1; experiment: Spray-induced gene silencing (SIGS), G. orontii spore production on A. thaliana (whole plant and detached leaf assays); assay type: in vivo, Golovinomyces orontii; conditions: topical dsRNA against G. orontii target (Gor Seq ID); detached leaf assay; n>=3

Row | Molecule | G. orontii Spore Production on Arabidopsis, Detached Leaf Assay, % reduction
1 | B1 | 54%
2 | B2 | 63%
3 | B3 | 37%
4 | B4 | 38%
5 | B5 | 39%
6 | B6 | 62%

same assay, conditions: topical dsRNA against G. orontii target (Gor Seq ID); whole plant assay; n>=3

Row | Molecule | G. orontii Spore Production on Arabidopsis, Whole Plant Assay, % reduction
7 | B2 | 42%
8 | B7 | 41%
9 | B3 | 60%
10 | B4 | 32%
11 | B8 | 33%
